Article PMC8780415

Assays:
Assay in all cases: flow cytometry on cells
[1] = biological target: SR-B1-GFP fusion protein (scavenger receptor class B type 1) (UniProt Q8WTV0)
[2] = biological target: Biotinylated Myr47 (myristoylated pre-S1 peptide); conditions: HEK293T cells transiently transfected; GFP+ gate; 10,000 cells; triplicate assays; mean and standard error; Myr47 binding examined at 4 °C; parent: est. 13; read off a plot
[3] = biological target: NTCP-GFP fusion protein (sodium taurocholate cotransporting polypeptide) (UniProt Q14973)
UniProt Q14973, sequence (Q14973 whole entry, the tested form may be a part): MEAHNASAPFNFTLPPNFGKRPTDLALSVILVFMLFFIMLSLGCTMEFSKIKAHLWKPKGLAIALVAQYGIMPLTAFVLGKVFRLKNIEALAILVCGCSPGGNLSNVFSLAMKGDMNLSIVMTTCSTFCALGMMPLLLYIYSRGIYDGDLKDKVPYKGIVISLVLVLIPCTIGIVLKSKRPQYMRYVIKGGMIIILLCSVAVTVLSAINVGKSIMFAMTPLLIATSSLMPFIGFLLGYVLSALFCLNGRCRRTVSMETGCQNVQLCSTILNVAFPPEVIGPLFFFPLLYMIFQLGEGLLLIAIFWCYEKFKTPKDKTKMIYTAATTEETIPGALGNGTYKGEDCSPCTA

UniProt Q8WTV0, sequence (Q8WTV0 whole entry, the tested form may be a part): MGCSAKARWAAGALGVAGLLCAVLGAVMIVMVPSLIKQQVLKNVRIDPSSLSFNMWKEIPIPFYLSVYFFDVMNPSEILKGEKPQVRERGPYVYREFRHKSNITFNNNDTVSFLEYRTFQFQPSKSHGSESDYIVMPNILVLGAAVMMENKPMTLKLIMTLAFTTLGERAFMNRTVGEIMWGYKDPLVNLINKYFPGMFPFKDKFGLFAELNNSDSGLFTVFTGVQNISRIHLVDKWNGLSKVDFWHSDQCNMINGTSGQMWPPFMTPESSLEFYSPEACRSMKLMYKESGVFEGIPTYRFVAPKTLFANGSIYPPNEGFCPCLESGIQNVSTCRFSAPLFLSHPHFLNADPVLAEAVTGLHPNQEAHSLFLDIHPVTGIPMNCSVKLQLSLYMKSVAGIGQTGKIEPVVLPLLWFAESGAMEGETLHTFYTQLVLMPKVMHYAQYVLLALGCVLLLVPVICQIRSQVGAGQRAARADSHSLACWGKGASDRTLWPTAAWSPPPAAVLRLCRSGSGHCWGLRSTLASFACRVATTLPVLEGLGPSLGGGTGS

Substance	fold binding over GFP control cells [1]	response [2]	fold binding over GFP control cells [3]
Yeast-derived nanoparticles containing L protein (bio-nanocapsules, BNCs)	9.2 fold		
SR-B1-GFP fusion protein (scavenger receptor class B type 1) (from UniProt Q8WTV0) K151A		10 FI × 10^3	
SR-B1-GFP fusion protein (scavenger receptor class B type 1) (from UniProt Q8WTV0) M441A; L448A; L455A		10 FI × 10^3	
Biotinylated Myr47 (myristoylated pre-S1 peptide)	2.8 fold		3.4 fold
SR-B1-GFP fusion protein (scavenger receptor class B type 1) (from UniProt Q8WTV0) T175A		5.7 FI × 10^3	
SR-B1-GFP fusion protein (scavenger receptor class B type 1) (from UniProt Q8WTV0) S112F		5.3 FI × 10^3	
SR-B1-GFP fusion protein (scavenger receptor class B type 1) (from UniProt Q8WTV0) K156A		5.8 FI × 10^3	
